Patent publication US20190134153A1, “IMMUNOMODULATORY EFFECT OF INHALED KINASE INHIBITOR PEPTIDES IN LUNG” (MOERAE MATRIX, INC., priority 2017, published 2019)

How the values were obtained:
Test in all cases: Kinase Profiling Assay
Type in all cases: biochemical
Details in all cases: 100 μM
[1] = molecular target: T1, PRAK(h) (Homo sapiens, UniProt Q8IW41)
T1 sequence (Q8IW41 1-473): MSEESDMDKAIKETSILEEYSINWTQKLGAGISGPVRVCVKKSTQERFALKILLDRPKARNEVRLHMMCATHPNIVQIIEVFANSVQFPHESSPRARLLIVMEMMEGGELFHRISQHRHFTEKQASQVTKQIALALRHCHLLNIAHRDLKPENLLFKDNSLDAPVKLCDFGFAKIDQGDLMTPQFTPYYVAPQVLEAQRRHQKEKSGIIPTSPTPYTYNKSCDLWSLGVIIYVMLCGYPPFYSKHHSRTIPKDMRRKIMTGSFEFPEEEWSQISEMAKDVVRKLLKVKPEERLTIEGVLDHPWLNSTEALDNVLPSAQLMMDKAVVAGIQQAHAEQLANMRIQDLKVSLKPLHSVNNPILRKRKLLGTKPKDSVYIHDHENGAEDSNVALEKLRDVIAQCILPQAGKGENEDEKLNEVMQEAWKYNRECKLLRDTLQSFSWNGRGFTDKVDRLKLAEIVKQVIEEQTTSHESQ

[2] = molecular target: T2, NEK2(h) (Homo sapiens, UniProt P51955)
T2 sequence (P51955 1-445): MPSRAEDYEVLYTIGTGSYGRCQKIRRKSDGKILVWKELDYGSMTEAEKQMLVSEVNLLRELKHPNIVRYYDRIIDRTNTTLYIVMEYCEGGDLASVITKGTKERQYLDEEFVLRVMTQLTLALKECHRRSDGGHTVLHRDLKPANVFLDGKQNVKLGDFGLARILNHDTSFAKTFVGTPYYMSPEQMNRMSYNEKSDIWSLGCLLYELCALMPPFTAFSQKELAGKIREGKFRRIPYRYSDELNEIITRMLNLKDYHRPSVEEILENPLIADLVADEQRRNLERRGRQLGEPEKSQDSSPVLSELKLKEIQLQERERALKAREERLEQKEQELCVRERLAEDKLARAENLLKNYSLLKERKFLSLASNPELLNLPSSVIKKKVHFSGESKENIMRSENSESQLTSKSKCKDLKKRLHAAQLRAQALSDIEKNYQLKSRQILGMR

[3] = molecular target: T3, Itk(h) (Homo sapiens, UniProt Q08881)
T3 sequence (Q08881 1-620): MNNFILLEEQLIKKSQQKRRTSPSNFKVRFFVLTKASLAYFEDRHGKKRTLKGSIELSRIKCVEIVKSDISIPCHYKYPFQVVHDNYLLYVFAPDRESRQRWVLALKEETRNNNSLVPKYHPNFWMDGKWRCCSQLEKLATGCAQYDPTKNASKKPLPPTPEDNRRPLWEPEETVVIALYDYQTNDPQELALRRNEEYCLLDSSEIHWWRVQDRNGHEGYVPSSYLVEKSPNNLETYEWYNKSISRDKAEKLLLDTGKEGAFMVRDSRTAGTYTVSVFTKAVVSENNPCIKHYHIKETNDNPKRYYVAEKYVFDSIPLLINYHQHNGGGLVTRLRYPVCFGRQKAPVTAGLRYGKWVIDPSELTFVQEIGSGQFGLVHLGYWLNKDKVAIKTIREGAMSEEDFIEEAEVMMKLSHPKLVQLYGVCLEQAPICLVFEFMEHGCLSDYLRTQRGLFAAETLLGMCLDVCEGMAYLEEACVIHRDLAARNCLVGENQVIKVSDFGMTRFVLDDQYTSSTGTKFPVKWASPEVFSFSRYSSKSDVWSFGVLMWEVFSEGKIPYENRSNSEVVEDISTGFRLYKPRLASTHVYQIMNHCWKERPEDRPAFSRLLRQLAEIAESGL

[4] = molecular target: T4, ULK3(h) (Homo sapiens, UniProt Q6PHR2)
T4 sequence (Q6PHR2 1-472): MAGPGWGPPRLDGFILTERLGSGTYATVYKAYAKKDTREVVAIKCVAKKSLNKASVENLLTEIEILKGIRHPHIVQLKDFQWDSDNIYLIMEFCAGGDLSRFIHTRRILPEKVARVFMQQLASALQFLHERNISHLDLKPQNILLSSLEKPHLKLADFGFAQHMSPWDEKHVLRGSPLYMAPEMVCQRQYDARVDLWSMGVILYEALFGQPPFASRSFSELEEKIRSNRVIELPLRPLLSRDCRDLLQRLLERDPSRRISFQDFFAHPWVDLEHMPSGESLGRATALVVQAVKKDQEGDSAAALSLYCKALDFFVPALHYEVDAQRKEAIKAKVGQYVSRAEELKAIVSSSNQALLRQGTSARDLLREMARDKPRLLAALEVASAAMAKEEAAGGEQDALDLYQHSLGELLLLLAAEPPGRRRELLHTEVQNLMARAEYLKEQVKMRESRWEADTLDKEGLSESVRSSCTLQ

[5] = molecular target: Aurora-B(h) (Homo sapiens, UniProt Q96GD4)
[6] = molecular target: Pyk2(h) (Homo sapiens, UniProt Q14289)
[7] = molecular target: T5, SGK(h) (Homo sapiens, UniProt O00141)
T5 sequence (O00141 1-431): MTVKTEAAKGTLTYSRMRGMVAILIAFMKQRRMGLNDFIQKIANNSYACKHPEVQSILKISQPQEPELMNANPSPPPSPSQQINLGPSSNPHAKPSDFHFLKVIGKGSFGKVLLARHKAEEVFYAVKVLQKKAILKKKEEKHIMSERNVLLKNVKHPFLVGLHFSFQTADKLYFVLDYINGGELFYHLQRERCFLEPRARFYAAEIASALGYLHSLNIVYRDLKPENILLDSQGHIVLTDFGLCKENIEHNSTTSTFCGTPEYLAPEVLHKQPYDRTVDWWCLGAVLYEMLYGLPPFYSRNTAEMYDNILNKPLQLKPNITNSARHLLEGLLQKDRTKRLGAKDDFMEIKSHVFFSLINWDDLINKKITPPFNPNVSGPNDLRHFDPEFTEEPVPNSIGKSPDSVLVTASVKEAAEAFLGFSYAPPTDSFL

[8] = molecular target: MAPKAP-K3(h) (Homo sapiens, UniProt Q16644)
[9] = molecular target: CDK6/cyclinD3(h) (Homo sapiens, UniProt Q00534)
[10] = molecular target: EphA7(h) (Homo sapiens, UniProt Q15375)
[11] = molecular target: Met(Y1248H)(h) (Homo sapiens, UniProt P08581, Y1230H)

Sequence of CDK6/cyclinD3(h) (Q00534 whole entry): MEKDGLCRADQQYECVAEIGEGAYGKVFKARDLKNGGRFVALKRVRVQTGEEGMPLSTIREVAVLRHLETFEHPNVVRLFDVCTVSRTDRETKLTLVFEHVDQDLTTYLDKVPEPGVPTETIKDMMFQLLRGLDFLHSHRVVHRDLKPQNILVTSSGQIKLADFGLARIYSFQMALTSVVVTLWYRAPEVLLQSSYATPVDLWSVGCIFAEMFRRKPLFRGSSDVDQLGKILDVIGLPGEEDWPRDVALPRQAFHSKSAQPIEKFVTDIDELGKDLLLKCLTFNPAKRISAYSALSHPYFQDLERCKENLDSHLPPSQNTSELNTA
Sequence of CDK6/cyclinD3(h) (P30281 whole entry partner): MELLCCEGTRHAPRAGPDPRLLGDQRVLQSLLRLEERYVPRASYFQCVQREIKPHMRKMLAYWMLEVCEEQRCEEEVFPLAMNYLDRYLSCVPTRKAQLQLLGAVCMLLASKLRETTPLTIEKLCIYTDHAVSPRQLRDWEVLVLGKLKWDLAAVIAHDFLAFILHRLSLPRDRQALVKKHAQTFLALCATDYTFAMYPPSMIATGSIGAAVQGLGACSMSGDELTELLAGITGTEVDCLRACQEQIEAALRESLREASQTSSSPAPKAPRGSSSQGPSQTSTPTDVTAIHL
Sequence of Aurora-B(h) (Q96GD4 whole entry): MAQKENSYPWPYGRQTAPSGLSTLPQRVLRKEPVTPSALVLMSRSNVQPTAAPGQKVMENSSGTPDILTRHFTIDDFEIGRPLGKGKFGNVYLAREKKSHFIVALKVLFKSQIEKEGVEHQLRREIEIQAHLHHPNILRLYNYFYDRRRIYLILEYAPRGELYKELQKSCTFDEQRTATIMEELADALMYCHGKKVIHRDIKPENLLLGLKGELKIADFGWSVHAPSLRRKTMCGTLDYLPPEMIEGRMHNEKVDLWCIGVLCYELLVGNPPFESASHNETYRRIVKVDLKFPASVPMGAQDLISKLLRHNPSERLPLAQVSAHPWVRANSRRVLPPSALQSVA
Sequence of EphA7(h) (Q15375 28-998): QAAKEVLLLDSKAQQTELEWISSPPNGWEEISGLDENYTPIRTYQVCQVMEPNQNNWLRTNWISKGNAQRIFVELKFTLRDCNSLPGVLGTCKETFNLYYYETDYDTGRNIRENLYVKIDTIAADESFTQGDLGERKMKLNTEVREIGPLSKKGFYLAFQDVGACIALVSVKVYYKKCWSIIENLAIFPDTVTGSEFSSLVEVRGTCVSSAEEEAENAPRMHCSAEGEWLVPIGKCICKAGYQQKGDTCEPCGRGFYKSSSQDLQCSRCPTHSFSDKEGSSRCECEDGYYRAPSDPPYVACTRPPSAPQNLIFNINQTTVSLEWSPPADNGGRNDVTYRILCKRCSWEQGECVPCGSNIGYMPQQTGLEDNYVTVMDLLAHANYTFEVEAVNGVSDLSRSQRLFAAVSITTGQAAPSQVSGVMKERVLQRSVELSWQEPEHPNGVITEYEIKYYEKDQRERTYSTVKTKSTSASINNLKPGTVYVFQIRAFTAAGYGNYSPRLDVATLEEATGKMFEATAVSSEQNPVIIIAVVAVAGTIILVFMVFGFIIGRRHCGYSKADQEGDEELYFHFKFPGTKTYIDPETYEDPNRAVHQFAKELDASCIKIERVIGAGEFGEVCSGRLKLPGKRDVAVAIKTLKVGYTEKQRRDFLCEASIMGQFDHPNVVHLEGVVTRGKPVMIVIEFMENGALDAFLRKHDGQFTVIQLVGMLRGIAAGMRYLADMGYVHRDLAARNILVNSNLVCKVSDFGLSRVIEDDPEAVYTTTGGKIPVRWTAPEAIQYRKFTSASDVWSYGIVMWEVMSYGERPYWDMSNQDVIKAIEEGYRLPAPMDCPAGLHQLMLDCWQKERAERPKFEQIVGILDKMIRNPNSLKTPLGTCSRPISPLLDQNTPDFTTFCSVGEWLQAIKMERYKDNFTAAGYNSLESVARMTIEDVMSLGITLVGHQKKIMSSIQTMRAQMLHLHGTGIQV
Sequence of Pyk2(h) (Q14289 whole entry): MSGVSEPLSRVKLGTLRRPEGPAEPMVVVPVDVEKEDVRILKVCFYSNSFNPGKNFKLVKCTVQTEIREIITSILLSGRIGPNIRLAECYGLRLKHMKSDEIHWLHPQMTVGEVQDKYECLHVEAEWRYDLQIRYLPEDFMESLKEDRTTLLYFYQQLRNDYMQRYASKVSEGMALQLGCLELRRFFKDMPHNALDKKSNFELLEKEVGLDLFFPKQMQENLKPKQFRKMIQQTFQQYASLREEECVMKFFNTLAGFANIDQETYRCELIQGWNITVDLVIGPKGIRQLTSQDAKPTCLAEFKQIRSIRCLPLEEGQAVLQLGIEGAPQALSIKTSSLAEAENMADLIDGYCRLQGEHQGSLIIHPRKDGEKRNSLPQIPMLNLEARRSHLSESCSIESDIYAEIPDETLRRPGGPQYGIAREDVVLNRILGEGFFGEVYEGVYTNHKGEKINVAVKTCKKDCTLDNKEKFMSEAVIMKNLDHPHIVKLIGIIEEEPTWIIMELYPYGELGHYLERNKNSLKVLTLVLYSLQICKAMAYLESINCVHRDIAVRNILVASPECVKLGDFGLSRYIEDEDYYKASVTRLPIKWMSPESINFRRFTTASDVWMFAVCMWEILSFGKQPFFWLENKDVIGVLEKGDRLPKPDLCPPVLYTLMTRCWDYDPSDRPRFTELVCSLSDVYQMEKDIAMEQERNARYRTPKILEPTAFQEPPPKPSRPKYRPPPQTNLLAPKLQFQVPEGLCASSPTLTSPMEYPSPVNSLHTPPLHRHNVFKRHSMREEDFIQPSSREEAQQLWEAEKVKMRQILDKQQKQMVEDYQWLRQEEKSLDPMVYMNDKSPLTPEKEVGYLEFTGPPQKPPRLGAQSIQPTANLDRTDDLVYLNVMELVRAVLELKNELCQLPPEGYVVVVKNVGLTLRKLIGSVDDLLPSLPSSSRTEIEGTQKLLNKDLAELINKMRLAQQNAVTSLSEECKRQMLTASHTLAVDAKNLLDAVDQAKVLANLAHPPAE
Sequence of MAPKAP-K3(h) (Q16644 whole entry): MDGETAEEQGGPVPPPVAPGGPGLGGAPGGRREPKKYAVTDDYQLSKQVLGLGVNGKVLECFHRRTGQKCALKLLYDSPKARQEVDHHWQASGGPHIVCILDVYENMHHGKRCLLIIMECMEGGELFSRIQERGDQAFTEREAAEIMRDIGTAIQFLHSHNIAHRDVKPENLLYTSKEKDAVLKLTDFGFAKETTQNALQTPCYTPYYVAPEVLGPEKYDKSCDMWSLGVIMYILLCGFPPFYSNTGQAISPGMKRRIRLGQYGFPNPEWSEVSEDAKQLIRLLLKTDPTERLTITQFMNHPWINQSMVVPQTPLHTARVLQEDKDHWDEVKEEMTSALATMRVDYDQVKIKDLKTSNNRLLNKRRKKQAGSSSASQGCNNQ

Sequence: FAKLAARLYRKALARQLGVAA [MMI-0300]
- % activity [1]: 128%
- % activity [2]: 78%
- % activity [3]: 77%
- % activity [4]: 167%
- % activity [5]: 128%
- % activity [6]: 47%
- % activity [7]: 48%
- % activity [8]: 3%
- % activity [9]: 86%
- % activity [10]: 159%

Sequence: KAFAKLAARLYRKALARQLGVAA [MMI-0400]
- % activity [1]: 118%
- % activity [2]: 61%
- % activity [3]: 63%
- % activity [4]: 147%
- % activity [5]: 150%
- % activity [11]: 63%
- % activity [6]: 34%
- % activity [7]: 54%
- % activity [8]: 7%
- % activity [9]: 85%
- % activity [10]: 222%

Sequence: HRRIKAWLKKIKALARQLGVAA [MMI-0500]
- % activity [1]: 95%
- % activity [2]: 0%
- % activity [3]: 7%
- % activity [4]: 177%
- % activity [5]: 5%
- % activity [11]: 126%
- % activity [6]: 46%
- % activity [7]: 2%
- % activity [8]: 9%
- % activity [9]: 23%
- % activity [10]: 189%

Sequence: YARAAARQARAKALNRQLGVA [MMI-0200]
- % activity [2]: 97%
- % activity [3]: 98%
- % activity [4]: 164%
- % activity [5]: 166%
- % activity [11]: 153%
- % activity [6]: 127%
- % activity [8]: 39%
- % activity [9]: 100%
- % activity [10]: 220%
